Measured values published in US5662885A, “Peptide derived radionuclide chelators” (Resolution Pharmaceuticals Inc., priority 1994, dated 1997).
Starred links: 1 amine or outer side, 2 acyl side, 3 side chain; linkers in the order of their positions; H or OH if unused. Non-standard residues stand in square brackets, D forms with d. No end group written: not given here. *: point of attachment. Cys(Acm) = CC(=O)NCSC[C@H](N[*:1])C(=O)[*:2]; Me2Gly = CN(C)CC(=O)*

Experiments:
[1] = system: zymosan-induced focal inflammation in left hindleg of rats; conditions: rat, in vivo, iv
Procedure: (§1) Rat inflammation studies were performed as follows. 2 male Wistar rats (Charles River, 200-250 g) were injected intramuscularly with (25 mg) zymosan, a yeast cell wall suspension, into their left hindlegs 24 hours before imaging. Focal inflammation in the leg was visually detectable after 1 day.
(§2) The rats were anaesthetized with somnitol (40 to 50 mg/kg), and the labeled conjugate solution (200 μL) was injected intravenously via the tail vein. Serial whole-body scintigrams were acquired at 30 minutes. The rats were then killed with anaesthesia overdose and samples of organs, urine, blood, inflamed muscle (left leg) and non-inflamed muscle (right leg) and inflammatory exudate (fluid) were weighed and counted in either a well-type gamma counter or in a gamma dose calibrator depending upon the organ. The dose calculations were made based on the assumption that the blood volume constituted 8% of body weight. The results of the conjugates represented in the table below are averages for two rats and are corrected for the residual dose in the tail.

[2] = system: zymosan-induced focal inflammation in left hindleg of rats; experiment: Rat inflammation study: in vivo imaging and biodistribution of Tc-99m labeled conjugates; conditions: i.v. tail vein, 30 minutes, average of two rats; for Inflam:Uninfl (target to background ratio, inflamed:uninflamed muscle): zymosan-inflamed left leg vs right leg muscle
Procedure: as §1, §2

| Substance | GI Tract (% dose) [1] | Liver (% dose) [1] | Urine (% dose) [1] | Fluid:Blood (inflammatory exudate:blood) [2] | Inflam:Uninfl (target to background ratio, inflamed:uninflamed muscle) [2] |
| --- | --- | --- | --- | --- | --- |
| N,N-dimethylGly-Ser-Cys(Acm)-Gly-Thr-Lys-Pro-Pro-Arg-OH ([Me2Gly]S[Cys(Acm)]GTKPPR-OH; also: 99mTc label via N,N-dimethylGly-Ser-Cys(Acm) chelator) [N,N-dimethylGly-Ser-Cys(Acm)-GTKPPR-OH] | 2.8 % dose | 2.4 % dose | 63.5 % dose | 1.9 | 5.3 |
| N,N-dimethylGly-Thr-Cys(Acm)-Gly-Thr-Lys-Pro-Pro-Arg ([Me2Gly]T[Cys(Acm)]GTKPPR; also: 99mTc label via N,N-dimethylGly/Cys(Acm) chelator) [N,N-dimethylGly-Thr-Cys(Acm)-GTKPPR-OH] | 2.5 % dose | 2.4 % dose | 68.5 % dose | 1.6 | 4.6 |
